In paper PMC10364586 (Protein Science : A Publication of the Protein Society, 2023):
Where “and” joins values, the source holds several entries; their conditions need not be identical. Equal values may be shown once.

Columns and labels:
[1] = target: T1, PADI4 (peptidyl-arginine deiminase 4), recombinant, dimeric (human, UniProt Q9UM07 1-663); assay: ITC
[2] = target: T1, PADI4 (peptidyl-arginine deiminase 4), …; assay: other fluorescence titration

T1 sequence (Q9UM07 whole entry): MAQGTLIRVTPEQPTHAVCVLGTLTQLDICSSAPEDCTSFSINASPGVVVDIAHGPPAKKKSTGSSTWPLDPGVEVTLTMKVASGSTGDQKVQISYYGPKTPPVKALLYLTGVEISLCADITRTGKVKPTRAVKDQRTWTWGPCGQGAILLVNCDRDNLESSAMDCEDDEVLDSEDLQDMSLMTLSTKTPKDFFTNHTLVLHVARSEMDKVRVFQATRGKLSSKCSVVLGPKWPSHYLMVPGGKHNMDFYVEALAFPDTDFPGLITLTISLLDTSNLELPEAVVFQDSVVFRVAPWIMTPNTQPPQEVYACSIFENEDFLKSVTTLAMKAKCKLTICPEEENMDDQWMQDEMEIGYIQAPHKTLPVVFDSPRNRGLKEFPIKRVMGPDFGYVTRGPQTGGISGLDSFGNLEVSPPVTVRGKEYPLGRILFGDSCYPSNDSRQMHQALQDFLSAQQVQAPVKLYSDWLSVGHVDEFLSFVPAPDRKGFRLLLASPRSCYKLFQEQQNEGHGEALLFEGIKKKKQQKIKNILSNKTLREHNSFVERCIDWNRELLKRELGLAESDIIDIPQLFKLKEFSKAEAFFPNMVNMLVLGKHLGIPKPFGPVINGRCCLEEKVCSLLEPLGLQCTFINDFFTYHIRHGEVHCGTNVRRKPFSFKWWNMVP

Kd [1]: 1 ± 0.2 µM
Kd [2]: 5 µM and ~6 µM
B1: His-tagged N-MDM2 (N-terminal region of MDM2, residues 6-125 of the intact protein) (domain or fragment, UniProt Q00987 6-125, looked up)
chain: MSVPTDGAVTTSQIPASEQETLVRPKPLLLKLLKSVGAQKDTYTMKEVLFYLGQYIMTKRLYDEKQQHIVYCSNDLLGDLFGVPSFSVKEHRKIYTMIYRNLVVVNQQESSDSGTSVSEN
modifications: 15N-labelled in the NMR experiment only
